Results reported in US20190262431.

B1: human Cbl-b^29-483 (recombinant, GST fusion protein) (protein)
chain: IQDAVGPPKQAAADRRTVEKTWKLMDKVVRLCQNPKLQLKNSPPYILDILPDTYQHLRLILSKYDDNQKLAQLSENEYFKIYIDSLMKKSKRAIRLFKEGKERMYEEQSQDRRNLTKLSLIFSHMLAEIKAIFPNGQFQGDNFRITKADAAEFWRKFFGDKTIVPWKVFRQCLHEVHQISSGLEAMALKSTIDLTCNDYISVFEFDIFTRLFQPWGSILRNWNFLAVTHPGYMAFLTYDEVKARLQKYSTKPGSYIFRLSCTRLGQWAIGYVTGDGNILQTIPHNKPLFQALIDGSREGFYLYPDGRSYNPDLTGLCEPTPHDHIKVTQEQYELYCEMGSTFQLCKICAENDKDVKIEPCGHLMCTSCLTAWQESDGQGCPFCRCEIKGTEPIIVDPFDPRDEGSRCCSIIDPFGMPMLDLDDDDDREESLMMNRLANVRKCTDRQNSPVTSPGS
B2: full length human Cbl-b (Abnova) (protein)
chain: MANSMNGRNPGGRGGNPRKGRILGIIDAIQDAVGPPKQAAADRRTVEKTWKLMDKVVRLCQNPKLQLKNSPPYILDILPDTYQHLRLILSKYDDNQKLAQLSENEYFKIYIDSLMKKSKRAIRLFKEGKERMYEEQSQDRRNLTKLSLIFSHMLAEIKAIFPNGQFQGDNFRITKADAAEFWRKFFGDKTIVPWKVFRQCLHEVHQISSGLEAMALKSTIDLTCNDYISVFEFDIFTRLFQPWGSILRNWNFLAVTHPGYMAFLTYDEVKARLQKYSTKPGSYIFRLSCTRLGQWAIGYVTGDGNILQTIPHNKPLFQALIDGSREGFYLYPDGRSYNPDLTGLCEPTPHDHIKVTQEQYELYCEMGSTFQLCKICAENDKDVKIEPCGHLMCTSCLTAWQESDGQGCPFCRCEIKGTEPIIVDPFDPRDEGSRCCSIIDPFGMPMLDLDDDDDREESLMMNRLANVRKCTDRQNSPVTSPGSSPLAQRRKPQPDPLQIPHLSLPPVPPRLDLIQKGIVRSPCGSPTGSPKSSPCMVRKQDKPLPAPPPPLRDPPPPPPERPPPIPPDNRLSRHIHHVESVPSRDPPMPLEAWCPRDVFGTNQLVGCRLLGEGSPKPGITASSNVNGRHSRVGSDPVLMRKHRRHDLPLEGAKVFSNGHLGSEEYDVPPRLSPPPPVTTLLPSIKCTGPLANSLSEKTRDPVEEDDDEYKIPSSHPVSLNSQPSHCHNVKPPVRSCDNGHCMLNGTHGPSSEKKSNIPDLSIYLKGDVFDSASDPVPLPPARPPTRDNPKHGSSLNRTPSDYDLLIPPLGEDAFDALPPSLPPPPPPARHSLIEHSKPPGSSSRPSSGQDLFLLPSDPFVDLASGQVPLPPARRLPGENVKTNRTSQDYDQLPSCSDGSQAPARPPKPRPRRTAPEIHHRKPHGPEAALENVDAKIAKLMGEGYAFEEVKRALEIAQNNVEVARSILREFAFPPPVSPRLNL

How the values were obtained:
[1] = molecular target: inactive (non-phosphorylated) human Syk-GST (Life technologies), P43405
[2] = molecular target: active (phosphorylated) human Syk (Merck Millipore), P43405
recombinant Shp-2 = molecular target: T1, recombinant Shp-2
T1 sequence (Q06124 2-593, species assumed, looked up): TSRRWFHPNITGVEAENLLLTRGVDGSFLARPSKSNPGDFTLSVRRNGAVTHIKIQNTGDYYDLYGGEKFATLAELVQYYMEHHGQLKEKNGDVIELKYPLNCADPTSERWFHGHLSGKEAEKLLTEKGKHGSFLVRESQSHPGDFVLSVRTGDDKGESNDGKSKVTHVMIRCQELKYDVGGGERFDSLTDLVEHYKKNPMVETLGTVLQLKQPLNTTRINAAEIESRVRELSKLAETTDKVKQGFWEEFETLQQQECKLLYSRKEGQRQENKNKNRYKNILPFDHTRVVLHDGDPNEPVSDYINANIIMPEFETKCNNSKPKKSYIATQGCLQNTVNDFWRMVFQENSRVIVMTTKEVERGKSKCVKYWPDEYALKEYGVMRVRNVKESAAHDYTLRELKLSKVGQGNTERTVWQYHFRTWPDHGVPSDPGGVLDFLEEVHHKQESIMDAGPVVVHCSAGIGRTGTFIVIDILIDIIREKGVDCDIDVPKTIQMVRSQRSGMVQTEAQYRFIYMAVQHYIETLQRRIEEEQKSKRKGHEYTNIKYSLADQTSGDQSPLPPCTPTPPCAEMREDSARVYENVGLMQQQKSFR

Protein | in vitro poly-ubiquitination of inactive Syk (Syk-GST) (Western blot) [1] | in vitro poly-ubiquitination of active Syk (Western blot) [2] | in vitro poly-ubiquitination of recombinant active Syk (Western blot) [2] | in vitro poly-ubiquitination of recombinant Shp-2 (recombinant Shp-2)
B1 | non-phosphorylated recombinant Syk showed strongly diminished poly-ubiquitination by Cbl-d^29-483 | still exhibited poly-ubiquitination activity towards Syk |  | 
B2 |  |  | robust poly-ubiquitination of recombinant active Syk was observed | No poly-ubiquitination of recombinant Shp-2 was detected in these assays
